Laboratory results from article PMC3423377 (2012).

Biological target: ML/HLA-A2 pMHC, soluble recombinant (human | )
Assay: SPR

- koff: 0.016 s⁻¹
B1: fML soluble recombinant Fab (Fab, V domains shown)
VH: EVQLVESGGGLVQPGGSLRLSCAASGFNFSYYSIHWVRQAPGKGLEWVASIYSSSSYTSYADSVKGRFTISADTSKNTAYLQMNSLRAEDTAVYYCARGYYGEWGMDYWGQGTLVTVSS
VL: DIQMTQSPSSLSASVGDRVTITCRASQSVSSAVAWYQQKPGKAPKLLIYSASSLYSGVPSRFSGSRSGTDFTLTISSLQPEDFATYYCQQWNAYPVTFGQGTKVEIK
